Results on 19 sequences are retold here after the DeepSol protein solubility set.

A short description of this data set: soluble on expression in E. coli; label from the status in PepcDB or PDB records.
Turning to “QLNPYLRLKVRRDHIIDDALVRLEMIAMENPADLKKQLYVEFEGEQGVDEGGVSKEFFQLVVEEIFNPDIGMFTYDESTKLFWFNPSSFETEGQFTLIGIVLGLAIYNNCILDVHFPMVVYRKLMGKKGTFRDLGDSHPVLYQSLKDLLEYEGNVEDDMMITFQISQTDLFGNPMMYDLKENGDKIPITNENRKEFVNLYSDYILNKSVEKQFKAFRRGFHMVTNESPLKYLFRPEEIELLICGSRNLDFQALEETTEYDGGYTRDSVLIREFWEIVHSFTDEQKRLFLQFTTGTDRAPVGGLGKLKMIIAKNGPDTERLPTSHTCFNVLLLPEYSSKEKLKERLLKAITYAKGFGML”, the “soluble on expression in E. coli” value is recorded as “soluble”. Then “MNVVNNSRDVIYSSGIVFGTSGARGLVKDFTPQVCAAFTVSFVAVMQEHFSFDTVALAIDNRPSSYGMAQACAAALADKGVNCIFYGVVPTPALAFQSMSDNMPAIMVTGSHIPFERNGLKFYRPDGEITKHDEAAILSVEDTCSHLELKELIVSEMAAVNYISRYTSLFSTPFLKNKRIGIYEHSSAGRDLYKPLFIALGAEVVSLGRSDNFVPIDTEAVSKEDREKARSWAKEFDLDAIFSTDGDGDRPLIADEAGEWLRGDILGLLCSLALDAEAVAIPVSCNSIISSGRFFKHVKLTKIGSPYVIEAFNELSRSYSRIVGFEANGGFLLGSDICINEQNLHALPTRDAVLPAIMLLYKSRNTSISALVNELPTRYTHSDRLQGITTDKSQSLISMGRENLSNLLSYIGLENEGAISTDMTDGMRITLRDGCIVHLRASGNAPELRCYAEANLLNRAQDLVNTTLANIKKRCLL”, with “not soluble”; and “MGSDKIHHHHHHMSELTLLADADERGRRYLAGNAQRRVFPDADALSALARFNEALPQQGFSPEDTLTLLDEVGSPATTASNGPNYFGFVIGAALPIAAASERLMIAWDQCASTFDNSPVSATLERLASRWVLDILKLPKESAVGFGTSATACTLSCLVAARRAMLAKQGWDFDNDGLIGAPEIKVVISALTHITVKKALRVLGFGLRHIIVAPVNAFGQIDVTQLPPLDDRTILCLQAGEVNTGEFDDFAQIIPIAKAAGAWVHVDGAFGLWARASSHAALTESIELADSWTTDAHKWLNTPYDCAMAICRNADALAEAMNADAVYSSAARDAQKNLTLEFSRRPRGIPVWAVLRTLGRDGVAEMIERHCRQATLIADGLRHAGFEVLNRVVLNQVLLRGETDSQTTAIREALQASGKAWFGGTVWQGRPALRISVSSWRTQDDNVQALIALLTEIKAKTPR”, with “not soluble”; and “SLDTEKDCIKAVAAKDGITVIKVKSSNKLLSWHFMRKLFEIFEFYQEPVDMVATSEVGVSLTIDNDKNLPDIVRALSDIGDVTVDKDMVIICIVGDMEWDNVGFEARIINALKGVPVRMISYGGSNYNVSVLVKAEDKKKALIALSNKLFNSRATKA”, with “soluble”. As for “MPVANDAPGVDIEGTDADAESGDLPINELFQSLQGEGRLAGVPSVFVRTSGCNLRCWFCDSYHTSWEPTHDWFTVDDVLAAIEEYDANHVVLTGGEPLIHDSSEDLLARLTDRGYHTTVETNGTVVPDAPIDLASVSPKLASSTPTADRDPDGNGEWADRHEERRLDVPTLAELVETYDTQLKFVVTGREDMAEIERLLKRLRDAASTCVRDDDVLLMPEGQTRDQLEATRETVADLALEHGYRYTPRLHVDLWNDAPGT”, the “soluble on expression in E. coli” value is listed as “not soluble”. With “MCMNKKRIYKFRRFLARKLDFPSDAVMYTPRINISVTGDEEITIENYRGIVEFSDENIKVNTEVGTISIDGKNFEIVFISGSTIILGGKFKTIAYGGDKNEALEHHHHHH” the entry was “soluble”; with “SGTNDAEDCCLSVTQKPIPGYIVRNFHYLLIKDGCRVPAVVFTTLRGRQLCAPPDQPWVERIIQRLQRTSAKMKRRSS”, “soluble”; with “MAHHHHHHMVLLPFPPSFYVTTGTTIPFISSPPVAQSGNIYASNESKRLRVDNFFMGFQYSFVADGKLGRGFVFESIEPITTTTASGNNNNNNNNNNNNNNSSEKKSGRGGEERISCRSFALNRGLTGFGVPDEFVRHAESSLVRGVKVWRYTGYSRSGVGPLQEVDYFIRNGTFHAVPWRVQIRRRQTALKELTGSPMTLPNWRYFGGLFFDEVAVPEGPYEDKLERLMQDTTVTLDFYNFVPAEPHPSVFSVPDNCKEVSARFTGNDVDISLAQRFLVDLSLYTPVGREMLREELNSA”, “not soluble”.

As for “MGSDKIHHHHHHMGNATRIYEKHVDIKKDTVQDFWNKRAKKHIPENPYISVKCNDQNPDYAKNLDKYEKEIIIPKLNITRNSNILDIGCGVGRLADDIVPICNYYLGTDFAEDLISIAKKRFSDNDCDFQVCDFINTLYDTKVKSKMPFDTILLAGVTMYINDDELKIALKNLLGILDKKATIYISIPIGINKRLTLKEFYSKELNSEYNVIYRTIEEYEEILKPLLDEGFEIVESKSFLTDINQYSDTERHYFILKR”, the “soluble on expression in E. coli” value is recorded as “not soluble”. For “MSRTVIRAQPFFLQAAPGSREQLANPRGFTTFVLEASWSTGLRLDTYVTRGLGDPEQIMREEFQGQYVFWDTDEYLDLIRWMRHYNVSHPGRPTLRFVGNDLGYPGPEAFDQVTSYVTAHRPGVAERIATLYAGLRPARSASAGAWMGQQLTKDLASRRAEAARAERALTLLCASGRPRGSAGRAYNWAVQNATAVAQSFTGYAFPDEEFPERMRYRDQAMADNTAWWLAHTNGRILLASNNGHVAYTSDNPQEFPEPVGAFLRKKLGRKYVSVGLTFSEGSLNALPDFTAGQPQKYAVDPAPAGHNEHTLDQVRHRDFALDLRTAPPAARAWLDTARPTRSYGLYWSDQDPETALGRSYDIVIHLHRVEAARLWAFTSVKDGQSYRLEHHHHHH”, the “soluble on expression in E. coli” value is listed as “not soluble”. With “GSSAVNQENERLMEEYERLASELLEWIRRTIPWLENRTPEKTMQAMQKKLEDFRDYRRKHKPPKVQEKCQLEINFNTLQTKLRISNRPAFMPSEGKMVSDIAGAWQRLEQAEKGYEEWLLNEIRRLERLEHLAEKFRQKASTHETWAYGKEQILLQKDYESASLTEVRALLRKHEAFESDLAAHQDRVEQIAAIAQELNELDYHDAVNVNDRCQKICDQWDRLGTLTQKRREALERMEKLLETIDQLHLEFAKRAAPFNNWMEGAMEDLQDMFIVHSIEEIQSLITAHEQFKATLPEADGERQSIMAIQNEVEKVIQSYNIRISSSNPYSTVTMDELRTKWDKVKQLVPIRDQSLQEELARQHANERLRRQFAAQANAIGPWIQNKMEEIARSSIQITGALEDQMNQLKQYEHNIINYKNNIDKLEGDHQLIQEALVFDNKHTNYTMEHIRVGWELLLTTIARTINEVETQILTRD” the entry was “soluble”.

Turning to “MSLLRAIIVDNEEPATQILQMLLEKTGQIRVVGTFLRAADALSSLRLTKPDVAFLDIEIPDTSGLELANHILAMDSDVEIIFVTAYDHYALHAFRVNALDYLLKPLLPEDVERAVRRLIKRKGLAKDSAPESPLGANIHYFGKFSVYGPASKKPVKWRTSKAEELFAYLVQNLEKEVPKWRICEALWPEYHSEKVDIQLHTTVYKLKKVLTAANIPFDLSFSNGCYWLSLPQAAIDKVEFDAHIASSVPVNQSTIARCEHALSLYTGDYLEENGYLWSLALKAEYGQKFYKLASSVVNFYMTQGDWVRAEKILRSILERCPLDETVHEMLLTCYFTQKDRTAFITHYHTVRKLFQAELGLEPGKSIQTLYHSLLKRMDEGHHHHHH”, the “soluble on expression in E. coli” value was “soluble”. With “GNYENINSNPYEAPDLSADGYALGSAMNNLAGCVVSPDVNTAQFTDCLLGGPLGGYFADSNAGFTETISNFNPKDDWSRVFLKSDKIIPTLYSNLTQVKLVSQNTNDPVPYAIAQVIKVAAMHRVTDAFGPIPYSQIGANGEIATPYDSQEVTYNTFFDELNAAIATLNENSNEQLVPTADYIYKGDVKKWIRFANSLKLRLAIRIAYANPVKAQQMAEEAVNPANGGVIESNADNATWNYFETSQNPIYVATRYNQVQTSDHGGVPCLTGGDTHAAADIICYMNGYKDNRREKFFTKSEWAGQDYVGMRRGIVIPELKTTGHKYSGVNIAPTSPLYWMNAAEVAFLRAEGQAVFNFSMGGTAESFYNQGIRLSFEQWGADGVEDYLKDDVNKPTAYTDPAGTNTYQNALSNITIKWNDSADKEEKQERIIVQKWIANWQLGNEAWADFRRTGYPKLIPVKENKSGGVVDSEKGARRMPYPLDEFVSNKANVEYAIANYLHGADNMATDVWWASKK” the entry was “soluble”. With “MATTPETMENHAFDADMSFESALENYLSSDFGDLEEGSIVKGEIVRLGDDYVLVDVNFKSEGQIAANEFRDANGDLIIGVGDRVDVFVVRKNEMEGTITLSYEKAKRMQLFDQLEEVQEKNGVIKGRIVRRIKGGYTVDLGGVEAFLPGSHVDLRPVPDMDALVNQEYEFRVLKINRRRSNVIVSRRVLLEEERDSKRQDLLRTLEEGQVVKGKAKNITEYGVFVDLGGLDGLLHITDMSWKRIRHPKELVSLGQELELKVLSFDRDSQKVSLGMKQLVADPWQDITAKFPEGLRGQGKVTNLVDYGAFVELEPGVEGLVHISEMSWTRKLRHPSQMVRVGDEVEVVILGVDPDKKRISLGMKQVKPNPWEVVAEKYPEGTILEGVIKNITEFGMFIGIEDGIDGLIHVSDISWTKKIRHPNEMYKVGDVVQAKVLTVDQENEKFTLGVKQLAEDPWSRVPATYPVGTLVTGSVTNITDFGLFVEVEEGIEGLVHVSEISQKKIKSPSEIYKEGQEIQAKVIHVSAEERRLGLSIKQLKDEEERRKPKEFRSGSPEVGGQTLGDILKLKLEEDAADNLEHHHHHH” the entry was “not soluble”; with “MGSDKIHHHHHHMKLKQSESFKMDAFSMRVGDIEGVELDRLHALSLSVGWPHRAEDWQFLRNVGRGVVVLDEIGRVQGSAMWFEHGADFATVGMVITSPRLQTLGAAQWLMKRIFDKVGGRDLRLNATRAARRLYLSLDFLPEKTVYQCQGIARLETTGGPTDLRDVRALDPSDIPAAIALDAAGFGVRRAALVEKLFVHSAGYGLFKHDKLNAFALCRPFGRGHVVGPVVAESDADAVAVVRPHVADNSGSFLRIDTHMANGDFAAFLSHSGMTVFDTVLTMSMGKRLADFAVNGTVAPVTYALASQTLG”, “not soluble”; with “MDVRQSIHSEHAKTLDTQALRREFLIENIFVADEYTMVYSHIDRIIVGGIMPVSHPVEIGGEVGKQLGVSRLLDRRELGVINIGGAGAIIVDGQRHDIGHRDALYIGKGAKELVFVSNEASRPAKFYYNCAPAHTAYPTKKVSPADVAPVTLGDNLTSNRRTINKYFVPDVLETCQLSMGLTELAPGNLWNTMPCHTHERRMEVYLYFNMEEDSCVFHMMGQPQETRHIVMRNEQAVISPSWSIHSGVGTKAYTFVWGMVGENQVFDDMDHVAVQDLR”, “not soluble”. For the sequence “MTEILQTLKEYIPISLEEMSGIKLMNRTDTKYVTSYQILKEILLAAGHDYRVQEVNGEYNIAYHTIYLDTADRDMYLTHQNGRVVREKIRIRTYVDSDLTFLEVKNKNNKGRTDKKRIRIGSIDTIKEDGGEAFLRQHAWYEQSQLLPLLENSFRRITLVNKHKTERLTIDTGVTFCCLQSGKISSLDNIVIIELKRDGHNSSPIKEILRKLHIQSSGFSKYCIGSALTVSHLKCNRLKPKLRMLNKMGVY”, the “soluble on expression in E. coli” value is reported as “not soluble”.

Take “MPPIPEPEIDPVLKELLYAYSVISRARRYAGMAGVPLPLSLTEINEYLATHPVLIERDEFEAVIFALDDQYFQEQCV”: the “soluble on expression in E. coli” value is on record as “not soluble”. With “MENSSDPRTQSAATASLSEMIATITKTFIIAHVDDSDEHLAQALVYNAGRLAWRMREQGVHTDYKTSLSDVVTDADRAAEEFVSGVLTTLRPEDGIVGEEGATRNSTSGRTWVIDPVDGTYNFVNGSDFWCSALALIEGEPEDPTSVIFGAVHRPAMGYTWFGGPEIPTTCDGQPVAKLENKSTELINFATYLNPPCLQQPEIVTRWLTIAQAFLSWRMMGSGSVELANVADGTIGAYVQHSVKDWDWLPGRALVEGAGGKCIKVESGGVTWSIASNPQATDEVAAMLSR” the entry was “not soluble”.
